Results: the nanobody polyreactivity screen of Harvey et al. (2022)

Test: yeast display, Sf9 membrane polyspecificity reagent, FACS + sequencing; frameworks hold sequencing errors
Procedure, shortened: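 Synthetic nanobody libraries on Saccharomyces cerevisiae BJ5465 were galactose-induced for 36–48 hours, stained 1 hour at 4 °C with 10% biotinylated, detergent-solubilized Sf9 membrane reagent and enriched on streptavidin microbeads. FACS then separated cells into low and high (top ~1%) gates by anti-HA (expression) and streptavidin (reagent binding) fluorescence. Genes were colony-PCR amplified, MiSeq 2 × 250 sequenced and CDR-length filtered. A clone's polyreactivity label is that of its gate of origin.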

Row | Sequence | polyreactivity (PSR sort gate)
1 | QVQLVESGRGIVQAGGSLRISWAASGITLAGYVMGLYRQAPGKESELVADISSSGDSTYYADSVKGRFTMSRDNAKNTVYLQMNSLKPEDTAVYYCAAKCGRTGSFDYWGQGTQVTVSS | low polyreactivity
2 | QVQLVESGRGIVQAGGSLRLSCAASGLTFSSNAMVWYRQAPGKEREMVAVITNGGSTNYADSVKGRFTISRDNAKNTVYLQMNSLKPEDTAVYYCAKDGGPAQDIGMDYWGQGTQVTVSS | low polyreactivity
3 | QVQLVESGRGLFQAGGSLRLSCAASGFTFSLYAMGWYRQPPGKERELVAVISYRGGSTYYAYSVKGRFTISRDNAKNTVYLQMNSLKPEVTAVYYCARVVLHFSRYWWPVDYWGQGTQVTVSS | high polyreactivity
4 | QVQLVESGRGLFQAGGSLRLSCAASGSTFSGYAMGWYRPAPGKERELVATITRRGGNTYYADSVKGRFTISRDNAKNTVYLQMNSLKPEDTAVYYCSKDGRVHSPYDYWGQGTQVTVSS | low polyreactivity
5 | QVQLVESGRGLGQAGGSLRLSCAASVSTFDKYDKGRSRQAPGKEREFVAAISSTGASTYYADSVKGRFTISRDNAKNTVYLQMNSLKPEDTAVYYCAADVPVGYGDDYWGQGTQVTESS | low polyreactivity
6 | QVQLVESGRGLVEAGGSLRLSCAASGFIFLPYAMVWYRQAPGKERELVAAITRGGRTYYADSVNRRFTISRDNAKNTVYLQMNSLKPEDTAVYDCAATTYLVWGYNYWGQGTQVTVSS | low polyreactivity
7 | QVQLVESGRGLVQAGASLRLSCAASGRTFPYYARGRYRQAPGKERELVAAITTGGSTNYADSVKGRFTISRDNAKNTVYLQMNRLKPEDTAVYYCAKRFYRSRLNYYYWGQGTQVTVSS | high polyreactivity
8 | QVQLVESGRGLVQAGGSLRISCASSGNTFVYNPMGWYRQAPGKERELVAAIDSGGSTNYADSVKGRFTISRDNAKNTVYLQMNSLKPEDTAVYYCNRTSVYDYYWGQGTQGTVSS | low polyreactivity
9 | QVQLVESGRGLVQAGGSLRLSCAASASTFTLNTMGWYREAAGKERELVAAITASGGRTFYADSVKGPFTISRDNANNTVYLQMTSLKPEDTAFYYCAKRPYGWVSRYDYWGQVTQVTVSS | low polyreactivity
10 | QVQLVESGRGLVQAGGSLRLSCAASGFIFGGYAMGWYRQAPGKERELVAAISRSGGSTYYADSVKGRFTISRDNAKNTVYLQMNSLKPEDTAVYYCAAKFWPEDHRLDYWGQGTQVTVSS | low polyreactivity
11 | QVQLVESGRGLVQAGGSLRLSCAASGFIFSYYAMGWYRPAPGKERELVAAITVTGGNTNYADSVKGRFTISRDNAKNTVYLQMNSLKPEDTAVYYCAAVVRGPGVYVYDWGQGTQVTVSS | low polyreactivity
12 | QVQLVESGRGLVQAGGSLRLSCAASGFMIGINAMGWYRQAPGKERELVDAISTGDRTNYAHSVKGRFTISRDNAKNTVYLQMNSLKPEDTAVYYCAKDWRRNRPYEWTYDYWGQGTQVTVSS | low polyreactivity
13 | QVQLVESGRGLVQAGGSLRLSCAASGFTFAPNAMGWYRQAPGKDRELVARIDRAGSTYYADSVKGRFTISRDNAKNTVYLQMNSLKPEDTAVYYCATDYHGQPSPPYQSIKVDYWGQGTQVTVSS | low polyreactivity
14 | QVQLVESGRGLVQAGGSLRLSCAASGFTFSLNAMGWYRQAPGKERELVAGISIGGSTNYADSVKGRFTISRDNAKNTVYLQMNSLKPEDTAVYYCNAYYWSATWYFAAWDYYYWGQGTQVTVSS | high polyreactivity
15 | QVQLVESGRGLVQAGGSLRLSCAASGIIFAQNAMGWYRQAPGKEMVLVAAISLDGGSTNYADSVKGRFTISRDNAKNTVYLQMNSLKPEDTAVYYCAADDGWIEPVYGYYEHEYWGQGTQVTVSS | low polyreactivity
16 | QVQLVESGRGLVQAGGSLRLSCAASGLTFRVYAMGWYRQAPGKERELVAAITGGGGSTYADSVKGRFTISRDNAKNTVYLQMNSLKPQDTAVYYCNKKGYYYKFDYWGQGTQVTVSS | low polyreactivity
17 | QVQLVESGRGLVQAGGSLRLSCAASGRIFFKYAMGRYRPAPGKERELVAAISSSGGRTSYADSVKGRFTISRDNAKNTVYLQMNSLKPEDTAVYYCNVKPSARGSPLYDYWGQGTQVTVSS | high polyreactivity
18 | QVQLVESGRGLVQAGGSLRLSCAASGRIFFYYAMGWYREAPGKERELVATISYSGGGTYYADSVKGRFTISRDNAKNTVYLQMNSLKPEDTAVYYCNARWGTPYYIQDFDYWGQGTQVTVSS | low polyreactivity
19 | QVQLVESGRGLVQAGGSLRLSCAASGRIFGINAMGGYRQAPGKERELVAPITSGVSTNYADSVKGRFTISRDNAKNTVYLQMNSLKPGDTAVYYCAARPRWYFFSYGRQDYGYWGQGTQVTVSS | low polyreactivity
20 | QVQLVESGRGLVQAGGSLRLSCAASGRIFGRNAMGWYRQAPGKESELVASITSGGGTNYADSVKGRFTISRDNAKNTVYLQMNSLKPDDTAVYDCAKQFYRPGQQSRYDYWGQGMQVTVSS | low polyreactivity
21 | QVQLVESGRGLVQAGGSLRLSCAASGRIFGVYGRGWYRQAPGKERELVAAISWSGATTYYADSVKGRFTISRDNAKNTVYLQMHSLKPEDTAVYYCAADFGWFYDGVAVWFIRILGDYWGQGTQVTVSS | low polyreactivity
22 | QVQLVESGRGLVQAGGSLRLSCAASGRIFYNYAMGGYRQAPGKERELVAAISSSGGSTYFADSVKGRFTISRDNAKNTVYLQMNSLKPEDTAVYYCAVRKQYSGRYYRAYDYWGQGTQVTVSW | high polyreactivity

Row | Sequence | polyreactivity (PSR sort gate)
23 | QVQLVESGRGLVQAGGSLRLSCAASGRIFYYYAMGWYRKAPRKERELVAANTETGGNTYYADSVKGRFTISRDNAKNTVYLQMNSLKPEDTAVYYCARKGRRTHHYGLYSSSVYYWGQGTQVTVSS | low polyreactivity
24 | QVQLVESGRGLVQAGGSLRLSCAASGRIIRWNAMGWYRQAPGKERELVAGISGSGGSTYYADSVKGRFTISRDNAKNTVYLQMNSLKPEDTAVYYCAADHYRSRYDYWGQGTQVTVSS | low polyreactivity
25 | QVQLVESGRGLVQAGGSLRLSCAASGRTFARYAIGWYRPAPGKERELVATIRRVGSTNYADSVNGRFTISRDNAKNTVYLQMNSLKPEDTAVYYCAARSLRYGRGMYYWGQGTQVTVSS | high polyreactivity
26 | QVQLVESGRGLVQAGGSLRLSCAASGRTFAYYAMGWYRQAPGKERELVAGITTGGITNYADSVKGRFTISRDNAKNTVYLEMNRLKPEDTAVYYCAKANLFTYWYPGGNFDSAQSDYWGQGTQVTVSS | low polyreactivity
27 | QVQLVESGRGLVQAGGSLRLSCAASGRTFPYYAMGWYRQAPGKERELVAAISSSGGSTYYADSVKGRFTISRDNAKNTVYLQMNSLKPEDTAVYYCNRYSRLYLTDDDYWGQGTLVTVSS | high polyreactivity
28 | QVQLVESGRGLVQAGGSLRLSCAASGSIFIVYAMGWYRQAPGKERELVAAISWSGGSTYYADSVKGRFTISRDNAKNTVYLQMNSLKPEDSAVYFCAAKYTLPFRDVKYYSWGQGTQVTVSS | high polyreactivity
29 | QVQLVESGRGLVQAGGSLRLSCAASGSIFIYYAMGWYRQAPGKERELVAAISFSGARTYYADSVKGRFTISRDNAKNTVYLQMNSLKPEDTAVYYCNGARYSRRWPSEYWGQGTQVTVSS | low polyreactivity
30 | QVQLVESGRGLVQAGGSLRLSCAASGSIFTSYVMGWYRQAPGKERELVAAISQTGSSTYYADSVKGRFTISRDNAKNTVYLQMNSLKPEDTAVYYFAARRSRGSVRNYDYWGQGTKVTVSS | high polyreactivity
31 | QVQLVESGRGLVQAGGSLRLSCAASGSIFYGNTMGWYRQAPGTERELVASITRPGDRTYYADSVKGRFTLSRDNAKNTVDLQMNSLKAEDTAVYYCNAGLVLPPPGACIVYFDQMDYWGQGTQVTVSS | low polyreactivity
32 | QVQLVESGRGLVQAGGSLRLSCAASGSMFGKHVMGWYRQAPGKERELVAAISRSGGRTYYADSVKGRFTISRDNANNTVYLQMNTLKPEDTAVYYCAADGQPIGQQTYDYWGQGTQVTVSS | high polyreactivity
33 | QVQLVESGRGLVQAGGSLRLSCAASGSNFSVYAMGWYRKAPGKERELVAGITRGGSTYADSVKGRFTISRDNAKNTVYLQMNCLKPEDTAVYYFNAVWSNFRLGYDYWGQGTQVTVSS | high polyreactivity
34 | QVQLVESGRGLVQAGGSLRLSCAASGSTFDGYAMGWYRQAPGKERELVAAINWGGGSTRYADSVKGRFTISRDNAKNTVYLQMNSLKPEDTAVYYCAKYTSSRFDAFNYWGQGTQVTVSS | high polyreactivity
35 | QVQLVESGRGLVQAGGSLRLSCAASGSTFHGYPMGWYRQEPGKERELVAAITSGDSTNYADSVKGRYTISRDNAKNTVYLQMNSLKPEDTAVYYCAALQADRDRYPEFDLMDYWGQGTQVTVSS | low polyreactivity
36 | QVQLVESGRGLVQAGGSLRLSCAASGSTFLYYAMGWSRQAPGKEMELVAVISWSGVSTYYADSVKGRFTISRDNAKTTVYLQMNSLKPEDTAVYYCAAVPVHTGSLYWGFTTGYDYWGQGTQVTVSS | low polyreactivity
37 | QVQLVESGRGLVQAGGSLRLSCAASGSTFQYYAMGWYRPATGKERELDAAINSRGTSTFYADSVKGRFTISRDNAKNTVYLQMNSLKPEDTAVDYCNARGPRYGNRYRNDYWGQGTQGTVSS | high polyreactivity
38 | QVQLVESGRGLVQAGGSLRLSCAASGSTFRYNAMGWYRQAPGKERELVAAINRGGGTDYADSVKGRFTISRDNAKNTDYLQMNSLKPEDTAVYYCAKQFVSYNRWLAYGYWGQGTQVTVSS | low polyreactivity
39 | QVQLVESGRGLVQAGGSLRLSCAASGSTFRYYAMGWYRQAPGKERELVASITRGASTNYADSVKGRFTISRDNAKNTVYLQMNSLKPEDTAVYYCAADNYCHTFGGTDLRDDYWGQGTQVTVSS | low polyreactivity
40 | QVQLVESGRGLVQAGGSLRLSCADSGYIFWYYAMGWYRQAPGKERELVATITVSAGTTYFADSVKGRFTISRDNAKNTVYLQMNSLKPEDTAVYYCNKRSALSFVYDFDYWGQGTQVTVSS | low polyreactivity
41 | QVQLVESGRGLVQAGGSLRLSCASSGSTFRWNAMGWYRQAPGKERELVAAISQSGSSTYYADSVKGRFTISRDNAKNTVYLQMNSLKPEDTAVYYCAARTGRKYYYWGQGTQVTVSS | low polyreactivity
42 | QVQLVESGRGLVQAGGSLRLSCEDSGNIFPYYAMGWYRQAPGKERELVAAISGSGDRTYYADSVNGRFTISRDNAKNTVYLQMNSLKPEDTAVYYCAAYRRYYGWYDYWGQGTQVTVSS | high polyreactivity
43 | QVQLVESGRGLVQAGGSLRLSCGASGRTFGYYGMVGYRQATGKERELVASISRRGVSTYYADSVKGRFTISRDNAKNTVYLQMNSLKPEDTAVYYCAKDYWGYKYDYWGKGTQVTVSS | high polyreactivity
